Target: T1, preformed t-SNARE heterodimers (syntaxin 1A and SNAP-25B) in PS-free proteoliposomes (rat | mouse, UniProt P32851 1-288; P60879-1 1-206)
T1 construct: syntaxin-1A, rat, full-length cDNA; SNAP-25B, mouse; the sentence 'cDNA encoding full-length rat syntaxin-1A, mouse SNAP-25B and mouse synaptobrevin-2' is read as full length for all three; also called t-SNAREs; t-SNARE vesicles; source: pTrcHis vector, purified by the N-terminal His6-tag; reconstituted into PS-free vesicles
Test: co-flotation; 11 uM syt cytoplasmic domain mixed with 45 ul PS-free t-SNARE vesicles in 25 mM HEPES-KOH pH 7.4, 100 mM KCl, 10% glycerol, 1 mM dithiothreitol; 0.2 mM EGTA or 1 mM free Ca2+; RT 45 min; Accudenz gradient, 287,000g; SDS-PAGE, Coomassie blue, densitometry
Settings: both partners purified

T1 sequence (P32851 whole entry, chain 1 of 2): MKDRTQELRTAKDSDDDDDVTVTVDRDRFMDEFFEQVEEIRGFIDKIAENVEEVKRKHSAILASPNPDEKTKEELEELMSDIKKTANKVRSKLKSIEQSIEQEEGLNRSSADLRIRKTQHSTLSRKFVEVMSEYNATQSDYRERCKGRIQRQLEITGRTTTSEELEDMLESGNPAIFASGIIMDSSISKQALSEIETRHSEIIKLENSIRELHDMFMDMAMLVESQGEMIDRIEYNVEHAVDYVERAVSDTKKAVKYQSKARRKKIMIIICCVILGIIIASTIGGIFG
T1 sequence (P60879 whole entry, chain 2 of 2): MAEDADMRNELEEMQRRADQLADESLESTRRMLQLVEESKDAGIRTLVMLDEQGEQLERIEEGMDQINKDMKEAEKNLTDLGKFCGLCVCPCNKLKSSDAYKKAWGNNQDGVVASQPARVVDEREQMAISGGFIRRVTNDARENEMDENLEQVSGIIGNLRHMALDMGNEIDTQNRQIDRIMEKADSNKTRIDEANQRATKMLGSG

binding result: binds
B1: wild-type cytoplasmic domain of synaptotagmin 1 (residues 96-421) (domain or fragment, rat, UniProt P21707 96-421, looked up)
chain: GGKNAINMKDVKDLGKTMKDQALKDDDAETGLTDGEEKEEPKEEEKLGKLQYSLDYDFQNNQLLVGIIQAAELPALDMGGTSDPYVKVFLLPDKKKKFETKVHRKTLNPVFNEQFTFKVPYSELGGKTLVMAVYDFDRFSKHDIIGEFKVPMNTVDFGHVTEEWRDLQSAEKEEQEKLGDICFSLRYVPTAGKLTVVILEAKNLKKMDVGGLSDPYVKIHLMQNGKRLKKKKTTIKKNTLNPYYNESFSFEVPFEQIQKVQVVVTVLDYDKIGKNDAIGKVFVGYNSTGAELRHWSDMLANPRRPIAQWHTLQVEEEVDAMLAVKK
notes: synaptotagmin 1, rat, cytoplasmic domain with the tandem C2-domains C2A and C2B, residues 96-421; the D374 of the original cDNA was corrected to glycine; The native linker between C2A and C2B is residues 264-272, SAEKEEQEK; Residue 374 is glycine after correction of the cDNA; also called WT syt; syt

Reference: paper PMC4804166, “Different states of synaptotagmin regulate evoked versus spontaneous release” (Nature Communications, 2016)
